Results: IntAct's records for PubMed 29039417

B1: BBSome complex member BBS2 (Homo sapiens), Q9BXC9 (parent)
chain: MLLPVFTLKLRHKISPRMVAIGRYDGTHPCLAAATQTGKVFIHNPHTRNQHVSASRVFQSPLESDVSLLSINQAVSCLTAGVLNPELGYDALLVGTQTNLLAYDVYNNSDLFYREVADGANAIVLGTLGDISSPLAIIGGNCALQGFNHEGSDLFWTVTGDNVNSLALCDFDGDGKKELLVGSEDFDIRVFKEDEIVAEMTETEIVTSLCPMYGSRFGYALSNGTVGVYDKTSRYWRIKSKNHAMSIHAFDLNSDGVNELITGWSNGKVDARSDRTGEVIFKDNFSSAIAGVVEGDYRMDGHIQLICCSVDGEIRGYLPGTAEMRGNLMDTSAEQDLIRELSQKKQNLLLELRNYEENAKAELASPLNEADGHRGIIPANTRLHTTLSVSLGNETQTAHTELRISTSNDTIIRAVLIFAEGIFTGESHVVHPSIHNLSSSICIPIVPPKDVPVDLHLKAFVGYRSSTQFHVFESTRQLPRFSMYALTSLDPASEPISYVNFTIAERAQRVVVWLGQNFLLPEDTHIQNAPFQVCFTSLRNGGHLHIKIKLSGEITINTDDIDLAGDIIQSMASFFAIEDLQVEADFPVYFEELRKVLVKVDEYHSVHQKLSADMADHSNLIRSLLVGAEDARLMRDMKTMKSRYMELYDLNRDLLNGYKIRCNNHTELLGNLKAVNQAIQRAGRLRVGKPKNQVITACRDAIRSNNINTLFKIMRVGTASS
partner: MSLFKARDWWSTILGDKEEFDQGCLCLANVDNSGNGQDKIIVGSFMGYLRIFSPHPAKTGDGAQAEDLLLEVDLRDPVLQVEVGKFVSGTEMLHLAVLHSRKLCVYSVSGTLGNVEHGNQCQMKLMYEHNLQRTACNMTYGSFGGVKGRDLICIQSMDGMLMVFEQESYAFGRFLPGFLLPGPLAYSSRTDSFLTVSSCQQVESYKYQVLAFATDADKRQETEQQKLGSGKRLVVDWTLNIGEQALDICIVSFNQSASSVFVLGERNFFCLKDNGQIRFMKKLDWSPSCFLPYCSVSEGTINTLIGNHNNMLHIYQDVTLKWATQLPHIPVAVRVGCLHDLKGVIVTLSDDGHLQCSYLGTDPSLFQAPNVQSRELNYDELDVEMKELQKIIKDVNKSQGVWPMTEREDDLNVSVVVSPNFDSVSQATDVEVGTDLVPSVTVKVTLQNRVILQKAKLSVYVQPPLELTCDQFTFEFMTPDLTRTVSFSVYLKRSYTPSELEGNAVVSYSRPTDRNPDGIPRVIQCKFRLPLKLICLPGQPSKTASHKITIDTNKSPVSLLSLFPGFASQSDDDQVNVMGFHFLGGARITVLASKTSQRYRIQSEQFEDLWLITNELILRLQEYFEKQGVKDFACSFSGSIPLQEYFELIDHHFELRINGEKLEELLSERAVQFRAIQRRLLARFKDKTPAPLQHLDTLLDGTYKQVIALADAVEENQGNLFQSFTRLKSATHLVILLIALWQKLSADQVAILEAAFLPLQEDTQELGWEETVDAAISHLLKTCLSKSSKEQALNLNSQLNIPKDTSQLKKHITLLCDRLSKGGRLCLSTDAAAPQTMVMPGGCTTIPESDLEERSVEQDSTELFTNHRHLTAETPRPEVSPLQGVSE

Variants of: B1
Conditions: with pthb1_human BBS9, Q3SYG4

Variant	effect of a mutation on the interaction
F472K	with no effect
I554K	with no effect
L563A	with no effect
G541K	with no effect
M714E	with no effect
P378A	with no effect
P378K	with no effect
R509A	with no effect
G326A	with no effect
V596E	with no effect
V596K	with no effect
V451A	with no effect
V451K	with no effect
Q343K	with no effect
M634A	with no effect
R684A	with no effect
E356P	disrupting interaction strength
S605E	with no effect
D585K	with no effect
P479L	disrupting interaction strength
G657K	with no effect
P432E	with no effect

Variant	effect of a mutation on the interaction
V600E	with no effect
R635A	with no effect
Q508A	disrupting interaction strength
V510K	with no effect
D562K	with no effect
I412E	with no effect
Q527E	with no effect
G565A	with no effect
S537K	with no effect
S537A	with no effect
T397E	with no effect
L625K	with no effect
I445K	disrupting interaction strength
N557A	with no effect
N347E	with no effect
F535A	with no effect
F535K	disrupting interaction strength
D560E	with no effect
V716K	with no effect
K344E	with no effect
M614A	with no effect
R403E	with no effect

Variant	effect of a mutation on the interaction
S474K	disrupting interaction strength
L416E	with no effect
R715A	with no effect
N656E	with no effect
N517E	with no effect
K689A	with no effect
F518L	disrupting interaction strength
F518K	disrupting interaction strength
P447K	with no effect
I561F	disrupting interaction strength
A379E	with no effect
N393E	with no effect
L402A	with no effect
V606K	with no effect
P690A	with no effect
N354K	with no effect
H543A	with no effect
S405E	with no effect
L544A	disrupting interaction strength
R506K	with no effect
L455K	disrupting interaction strength
L455P	disrupting interaction strength

Variant	effect of a mutation on the interaction
N676K	with no effect
N676A	with no effect
D601A	with no effect
L352K	with no effect
L352A	with no effect
T381E	with no effect
T381A	with no effect
S497A	disrupting interaction strength
Q608K	with no effect
K638A	with no effect
C662K	with no effect
V446K	with no effect
R339E	with no effect
S493K	with no effect
G421A	with no effect
H604K	with no effect
P587A	with no effect
I338E	with no effect
H617E	with no effect
N408A	disrupting interaction strength
I376E	with no effect
